Results from publication doi:10.1101/2024.12.05.627070.

T1: Rad51 (full length, recombinant) (S. cerevisiae), P25454
T1 chain: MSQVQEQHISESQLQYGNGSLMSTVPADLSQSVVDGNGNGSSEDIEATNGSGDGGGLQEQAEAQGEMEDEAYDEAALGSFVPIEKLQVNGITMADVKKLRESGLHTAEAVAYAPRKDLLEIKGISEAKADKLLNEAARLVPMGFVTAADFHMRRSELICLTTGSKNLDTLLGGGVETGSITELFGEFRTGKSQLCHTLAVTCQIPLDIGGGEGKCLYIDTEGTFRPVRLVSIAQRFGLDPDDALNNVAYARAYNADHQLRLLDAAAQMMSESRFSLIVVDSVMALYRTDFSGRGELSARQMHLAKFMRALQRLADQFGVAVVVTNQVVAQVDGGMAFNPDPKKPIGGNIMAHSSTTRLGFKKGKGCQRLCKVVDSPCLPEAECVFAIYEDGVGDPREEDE


What was measured:
[1] = target: Rad51 (in yeast cells) (S. cerevisiae) (UniProt P25454); test: co-IP
[2] = target: Rad52 (295-408) (S. cerevisiae); test: SEC-SAXS
[3] = target: T1, Rad51 (full length, recombinant) (S. …); test: SEC-SAXS; details: remark: other sources report otherwise

Molecule	loss of interaction (%) against WT Rad52 [1] [%]	other results
Rad52-T349A-FLAG (natural protein)	85	
Rad51 (full length, recombinant) (from UniProt P25454 1-400) (natural protein)		stoichiometry N [2]: 1
Rad52-K340E-FLAG (natural protein)	30	
Rad51 (full length, recombinant), P25454 1-400 (natural protein) MSQVQEQHISESQLQYGNGSLMSTVPADLSQSVVDGNGNGSSEDIEATNGSGDGGGLQEQAEAQGEMEDEAYDEAALGSFVPIEKLQVNGITMADVKKLRESGLHTAEAVAYAPRKDLLEIKGISEAKADKLLNEAARLVPMGFVTAADFHMRRSELICLTTGSKNLDTLLGGGVETGSITELFGEFRTGKSQLCHTLAVTCQIPLDIGGGEGKCLYIDTEGTFRPVRLVSIAQRFGLDPDDALNNVAYARAYNADHQLRLLDAAAQMMSESRFSLIVVDSVMALYRTDFSGRGELSARQMHLAKFMRALQRLADQFGVAVVVTNQVVAQVDGGMAFNPDPKKPIGGNIMAHSSTTRLGFKKGKGCQRLCKVVDSPCLPEAECVFAIYEDGVGDPREEDE		stoichiometry N [3]: 4
